Results on 31 molecules are retold here after patent US20040106545A1 (MCGILL UNIVERSITY, published 2004).

Positions of bridges follow the written chain, without caps; N, C: chain ends.

First the molecules themselves.
T1: chick N-cadherin expressed on transfected 3T3 cells (chick, UniProt P10288 165-912)
T1 sequence (looked up): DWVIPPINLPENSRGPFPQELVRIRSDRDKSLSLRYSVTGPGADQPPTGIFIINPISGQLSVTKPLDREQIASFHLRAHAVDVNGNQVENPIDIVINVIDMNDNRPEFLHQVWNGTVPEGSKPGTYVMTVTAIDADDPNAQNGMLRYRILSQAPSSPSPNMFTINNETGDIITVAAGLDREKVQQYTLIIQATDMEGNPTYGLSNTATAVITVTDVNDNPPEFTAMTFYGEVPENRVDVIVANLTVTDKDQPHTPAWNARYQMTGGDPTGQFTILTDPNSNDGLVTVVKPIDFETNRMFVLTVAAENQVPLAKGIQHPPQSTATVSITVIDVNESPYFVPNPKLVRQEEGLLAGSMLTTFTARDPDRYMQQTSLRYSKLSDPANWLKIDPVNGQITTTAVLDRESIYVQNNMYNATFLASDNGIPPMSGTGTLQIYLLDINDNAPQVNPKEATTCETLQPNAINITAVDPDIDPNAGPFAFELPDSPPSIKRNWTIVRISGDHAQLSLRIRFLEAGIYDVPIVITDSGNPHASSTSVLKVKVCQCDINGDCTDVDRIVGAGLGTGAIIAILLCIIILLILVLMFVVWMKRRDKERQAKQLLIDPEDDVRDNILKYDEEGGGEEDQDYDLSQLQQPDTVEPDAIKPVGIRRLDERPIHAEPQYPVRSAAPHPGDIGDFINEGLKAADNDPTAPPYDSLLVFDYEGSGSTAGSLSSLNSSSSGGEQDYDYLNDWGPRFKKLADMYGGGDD

B1: N-Ac-CSHGVSSC-NH2 (peptide)
peptide: Ac-CSHGVSSC-NH2
modifications: disulfide 1-8
SMILES: CC(=O)N[C@H]1CSSC[C@@H](C(N)=O)NC(=O)[C@H](CO)NC(=O)[C@H](CO)NC(=O)[C@H](C(C)C)NC(=O)CNC(=O)[C@H](Cc2c[nH]cn2)NC(=O)[C@H](CO)NC1=O
B2: N-Ac-CSHAVSSC-NH2 (peptide)
peptide: Ac-CSHAVSSC-NH2
modifications: disulfide 1-8
SMILES: CC(=O)N[C@H]1CSSC[C@@H](C(N)=O)NC(=O)[C@H](CO)NC(=O)[C@H](CO)NC(=O)[C@H](C(C)C)NC(=O)[C@H](C)NC(=O)[C@H](Cc2c[nH]cn2)NC(=O)[C@H](CO)NC1=O
B3: N-Ac-CSHAVSC-NH2 (peptide)
peptide: Ac-CSHAVSC-NH2
modifications: disulfide 1-7
SMILES: CC(=O)N[C@H]1CSSC[C@@H](C(N)=O)NC(=O)[C@H](CO)NC(=O)[C@H](C(C)C)NC(=O)[C@H](C)NC(=O)[C@H](Cc2c[nH]cn2)NC(=O)[C@H](CO)NC1=O
B4: N-Ac-CSHGVSC-NH2 (peptide)
peptide: Ac-CSHGVSC-NH2
modifications: disulfide 1-7
SMILES: CC(=O)N[C@H]1CSSC[C@@H](C(N)=O)NC(=O)[C@H](CO)NC(=O)[C@H](C(C)C)NC(=O)CNC(=O)[C@H](Cc2c[nH]cn2)NC(=O)[C@H](CO)NC1=O
B5: N-Ac-CSHGVC-NH2 (peptide)
peptide: Ac-CSHGVC-NH2
modifications: disulfide 1-6
SMILES: CC(=O)N[C@H]1CSSC[C@@H](C(N)=O)NC(=O)[C@H](C(C)C)NC(=O)CNC(=O)[C@H](Cc2c[nH]cn2)NC(=O)[C@H](CO)NC1=O

In one experiment the target is T1, chick N-cadherin expressed on …. Nature of the experiment: cell-based or functional assay.
On to Ac-CHAVSSC-NH2 (disulfide 1-7 (inferred)) [N-Ac-CHAVSSC-NH2], for which the “% inhibition of N-cadherin dependent neurite outgrowth (peptide 250 µg/mL)” value (shortened to “% inhibition … (peptide 250 µg/mL)”) turned out to be 34.4%.
Same read-out and setting: the same measure for Ac-CAHAVDIC-NH2 (disulfide 1-8 (inferred)) [N-Ac-CAHAVDIC-NH2]: 89.4%; for H-CAHGVDIC-NH2 (disulfide 1-8 (inferred)) [H-CAHGVDIC-NH2]: 7.2%.
In the case of Ac-CLRAHGVC-NH2 (disulfide 1-8 (inferred)) [N-Ac-CLRAHGVC-NH2], the “% inhibition … (peptide 250 µg/mL)” value is -0.5%.
In the case of H-CAHGVDC-NH2 (disulfide 1-7 (inferred)) [H-CAHGVDC-NH2], the “% inhibition … (peptide 250 µg/mL)” value stood at 5.7%.
Still for that read-out and setting: for Ac-CRAHAVDC-NH2 (disulfide 1-8 (inferred)) [N-Ac-CRAHAVDC-NH2] the value was -5%.
The same measure, in the same setting: for Ac-CAHGVDIC-NH2 (disulfide 1-8 (inferred)) [N-Ac-CAHGVDIC-NH2] the value was 4.8%.
On the same count and under the same terms, the same measure for Ac-CRAHGVDC-NH2 (disulfide 1-8 (inferred)) [N-Ac-CRAHGVDC-NH2]: -8%.
On to B1, for which the “% inhibition … (peptide 250 µg/mL)” value was -5.6%.
As for Ac-CAHGVC-NH2 (disulfide 1-6 (inferred)) [N-Ac-CAHGVC-NH2], the “% inhibition … (peptide 250 µg/mL)” value is -6.4%.
Consider Ac-CHGVSC-NH2 (disulfide 1-6 (inferred)) [N-Ac-CHGVSC-NH2], for which the “% inhibition … (peptide 250 µg/mL)” value was -6.7%.
Still for that read-out and setting: the same measure for Ac-CHGVC-NH2 (disulfide 1-5 (inferred)) [N-Ac-CHGVC-NH2]: 4.8%.
In the case of Ac-CLRAHAVC-NH2 (disulfide 1-8 (inferred)) [N-Ac-CLRAHAVC-NH2], the “% inhibition … (peptide 250 µg/mL)” value worked out at 9.9%.
Take Ac-CHGVDC-NH2 (disulfide 1-6 (inferred)) [N-Ac-CHGVDC-NH2]: the “% inhibition … (peptide 250 µg/mL)” value is -8.6%.
As to Ac-CHGVSSC-NH2 (disulfide 1-7 (inferred)) [N-Ac-CHGVSSC-NH2], the “% inhibition … (peptide 250 µg/mL)” value came to 14.8%.
Still for that read-out and setting: for Ac-CHAVSC-NH2 (disulfide 1-6 (inferred)) [N-Ac-CHAVSC-NH2] the value was -2.5%; for B2, -12.6%.
The same measure, in the same setting: for Ac-CLRAHAVDC-NH2 (disulfide 1-9 (inferred)) [N-Ac-CLRAHAVDC-NH2] the value was 76.3%; for Ac-CAHAVC-NH2 (disulfide 1-6 (inferred)) [N-Ac-CAHAVC-NH2], 58.5%.
As to Ac-CLRAHGVDC-NH2 (disulfide 1-9 (inferred)) [N-Ac-CLRAHGVDC-NH2], the “% inhibition … (peptide 250 µg/mL)” value was -6.8%.
As to Ac-CAHGVDC-NH2 (disulfide 1-7 (inferred)) [N-Ac-CAHGVDC-NH2], the “% inhibition … (peptide 250 µg/mL)” value is 4%.
Regarding H-CHGVC-NH2 (disulfide 1-5 (inferred)) [H-CHGVC-NH2], the “% inhibition … (peptide 250 µg/mL)” value was 7.8%.
Regarding B3, the “% inhibition … (peptide 250 µg/mL)” value is 8.3%.
The same measure, in the same setting: for B4 the value was 10.8%; for B5, 12.5%; for Ac-CAHAVDC-NH2 (disulfide 1-7 (inferred)) [N-Ac-CAHAVDC-NH2], 13.3%.

For a further experiment the target is unchanged. Nature of the experiment: cell-based or functional assay. This is another data set of the same source.
As to Ac-CHAVDINGC-NH2 (disulfide 1-9 (inferred)) [N-Ac-CHAVDINGC-NH2], the “% inhibition of neurite outgrowth (peptide 125 µg/mL)” value amounted to 1.5%.

Another experiment addresses N-cadherin expressed on transfected 3T3 cells (Examples 2 and 21). Nature of the experiment: cell-based or functional assay.
On to Ac-KHGVD-NH2 (lactam 1-5 (inferred)) [N-Ac-KHGVD-NH2], for which the “% Inhibition of neurite outgrowth, 250 µg/mL (rat neurons)” value (from here on “% Inhibition … (rat neurons)”) stood at 0%.
Same read-out and setting: for Ac-CHAVSSC-NH2 (disulfide 1-7 (inferred)) [N-Ac-CHAVSSC-NH2] the value was 0%.
Ac-KHAVD-NH2 (lactam 1-5 (inferred)) [N-Ac-KHAVD-NH2]: the “% Inhibition … (rat neurons)” value came out at 0%.
With Ac-CAHAVDIC-NH2 (disulfide 1-8 (inferred)) [N-Ac-CAHAVDIC-NH2], the “% Inhibition … (rat neurons)” value stood at 82%.
Regarding H-CAHGVDIC-NH2 (disulfide 1-8 (inferred)) [H-CAHGVDIC-NH2], the “% Inhibition … (rat neurons)” value stood at 0%.
In the case of Ac-CLRAHGVC-NH2 (disulfide 1-8 (inferred)) [N-Ac-CLRAHGVC-NH2], the “% Inhibition … (rat neurons)” value was 0%.
Still for that read-out and setting: for H-KHGVD-NH2 (lactam 1-5 (inferred)) [H-KHGVD-NH2] the value was 0%.
As to H-CAHGVDC-NH2 (disulfide 1-7 (inferred)) [H-CAHGVDC-NH2], the “% Inhibition … (rat neurons)” value came out at 0%.
On the same count and under the same terms, the same measure for Ac-CRAHAVDC-NH2 (disulfide 1-8 (inferred)) [N-Ac-CRAHAVDC-NH2]: 0%; for Ac-CAHGVDIC-NH2 (disulfide 1-8 (inferred)) [N-Ac-CAHGVDIC-NH2]: 0%; for Ac-CRAHGVDC-NH2 (disulfide 1-8 (inferred)) [N-Ac-CRAHGVDC-NH2]: 0%.
For the molecule B1, the “% Inhibition … (rat neurons)” value amounted to 0%.
In the case of H-KHAVD-NH2 (lactam 1-5 (inferred)) [H-KHAVD-NH2], the “% Inhibition … (rat neurons)” value is 0%.
For the molecule Ac-CAHGVC-NH2 (disulfide 1-6 (inferred)) [N-Ac-CAHGVC-NH2], the “% Inhibition … (rat neurons)” value was found to be 0%.
Regarding Ac-CHGVSC-NH2 (disulfide 1-6 (inferred)) [N-Ac-CHGVSC-NH2], the “% Inhibition … (rat neurons)” value turned out to be 0%.
On to Ac-CHGVC-NH2 (disulfide 1-5 (inferred)) [N-Ac-CHGVC-NH2], for which the “% Inhibition … (rat neurons)” value was 0%.
With Ac-CLRAHAVC-NH2 (disulfide 1-8 (inferred)) [N-Ac-CLRAHAVC-NH2], the “% Inhibition … (rat neurons)” value is 0%.
On the same count and under the same terms, for Ac-CHGVDC-NH2 (disulfide 1-6 (inferred)) [N-Ac-CHGVDC-NH2] the value was 0%; for Ac-CHGVSSC-NH2 (disulfide 1-7 (inferred)) [N-Ac-CHGVSSC-NH2], 0%.
On the same count and under the same terms, for Ac-CHAVSC-NH2 (disulfide 1-6 (inferred)) [N-Ac-CHAVSC-NH2] the value was 0%.
With B2, the “% Inhibition … (rat neurons)” value was determined as 0%.
Consider Ac-CLRAHAVDC-NH2 (disulfide 1-9 (inferred)) [N-Ac-CLRAHAVDC-NH2], for which the “% Inhibition … (rat neurons)” value stood at 60%.
On to Ac-CAHAVC-NH2 (disulfide 1-6 (inferred)) [N-Ac-CAHAVC-NH2], for which the “% Inhibition … (rat neurons)” value turned out to be 51%.
Ac-CLRAHGVDC-NH2 (disulfide 1-9 (inferred)) [N-Ac-CLRAHGVDC-NH2]: the “% Inhibition … (rat neurons)” value amounted to 0%.
For the molecule H-CHGVC-NH2 (disulfide 1-5 (inferred)) [H-CHGVC-NH2], the “% Inhibition … (rat neurons)” value amounted to 0%.
The same measure, in the same setting: the same measure for B3: 0%; for B4: 0%; for B5: 0%.
